Results: paper PMC8373988 (2021)
Positions count from the first letter of the chain named. Numbers in names are those of the source.

B1: FICD^H363A (residues 104–445), dimeric, catalytically inactive [human] / AMPylated biotinylated-AviTag-haBiP^T229A-V461F (residues 27–635) [modified: AMP covalently attached to Thr518 (Thr518-AMP); biotin on the N-terminal Avi-tag; AMP … (parent complex)
chain 1: LEARAALNQALEMKRQGKREKAQKLFMHALKMDPDFVDALTEFGIFSEEDKDIIQADYLYTRALTISPYHEKALVNRDRTLPLVEEIDQRYFSIIDSKVKKVMSIPKGNSALRRVMEETYYHHIYHTVAIEGNTLTLSEIRHILETRYAVPGKSLEEQNEVIGMHAAMKYINTTLVSRIGSVTISDVLEIHRRVLGYVDPVEAGRFRTTQVLVGHHIPPHPQDVEKQMQEFVQWLNSEEAMNLHPVEFAALAHYKLVYIAPFIDGNGRTSRLLMNLILMQAGYPPITIRKEQRSDYYHVLEAANEGDVRPFIRFIAKCTETTLDTLLFATTEYSVALPEAQP
chain 2: not shown
B2: FICD^L258D-H363A (residues 104–445), monomeric, catalytically inactive [human] / AMPylated biotinylated-AviTag-haBiP^T229A-V461F (residues 27–635) [modified: AMP covalently attached to Thr518 (Thr518-AMP); biotin on the N-terminal Avi-tag; … (parent complex)
chain 1: B1 chain 1 with L155D
chain 2: not shown

Variants of: B1
Experiment: BLI; 50 nM FICD analyte; immobilised BiP activated in 2 mM ATP; read at end of apo association (600 s); parent: 0.2; read off a plot
Variant chain 1 L155D has a response of about 0.75 nm.

Variants of: B1
Experiment: BLI; 50 nM FICD analyte; immobilised BiP-AMP activated in 2 mM ATP; read at end of apo association (600 s); parent: 0.92; read off a plot
chain 1 L155D showed a response of about 0.75 nm.

Variants of: B1
Experiment: BLI; 50 nM FICD analyte; immobilised BiP activated in 2 mM ATP; read at end of apo association (600 s); parent: 0.24; read off a plot
For chain 1 K21E, the response was about 0.01 nm.
Variant chain 1 E2R has a response of about 0.04 nm.

Variants of: B1
Experiment: BLI; 50 nM FICD analyte; immobilised BiP-AMP activated in 2 mM ATP; read at end of apo association (600 s); parent: 0.74; read off a plot
Work on chain 1 K21E yielded a response of about 0.43 nm.
Variant chain 1 E2R has a response of about 0.73 nm.
Variant chain 1 H28A has a response of about 0.66 nm.
chain 1 K21E, chain 1 H28A was tested, and the response was about 0.03 nm.

Variants of: B1
Experiment: BLI; 50 nM FICD analyte, oxidised (TPRox); immobilised BiP activated in 2 mM ATP; read at end of apo association (600 s); parent: 0.24; read off a plot
chain 1 D57C, chain 1 T80C, chain 1 C318S was tested, and the response was about 0.31 nm.

Variants of: B1
Experiment: BLI; 50 nM FICD analyte, oxidised (TPRox); immobilised BiP-AMP activated in 2 mM ATP; read at end of apo association (600 s); parent: 0.74; read off a plot
Work on chain 1 D57C, chain 1 T80C, chain 1 C318S yielded a response of about 0.79 nm.

Variants of: B2
Experiment: BLI; 50 nM FICD analyte; immobilised BiP-AMP activated in 2 mM ATP; read at end of apo association (600 s); parent: 0.7; read off a plot
Work on chain 1 H28A yielded a response of about 0.2 nm.
chain 1 E2R showed a response of about 0.12 nm.

Variants of: B2
Experiment: BLI; 50 nM FICD analyte, oxidised (TPRox); immobilised BiP activated in 2 mM ATP; read at end of apo association (600 s); parent: 0.68; read off a plot
Variant chain 1 D57C, chain 1 T80C, chain 1 C318S has a response of about 0.92 nm.

Variants of: B2
Experiment: BLI; 50 nM FICD analyte, oxidised (TPRox); immobilised BiP-AMP activated in 2 mM ATP; read at end of apo association (600 s); parent: 0.7; read off a plot
chain 1 D57C, chain 1 T80C, chain 1 C318S gave a response of about 0.91 nm.
